According to patent US20260217779A1 (Chugai, published 2026):
Changes are numbered by the printed parent chain. Names and notes keep the numbering of the source.

T1: human CXCR3 (hCXCR3) on Ba/F3 transfectant cells (human, UniProt P49682 1-368)
T1 sequence: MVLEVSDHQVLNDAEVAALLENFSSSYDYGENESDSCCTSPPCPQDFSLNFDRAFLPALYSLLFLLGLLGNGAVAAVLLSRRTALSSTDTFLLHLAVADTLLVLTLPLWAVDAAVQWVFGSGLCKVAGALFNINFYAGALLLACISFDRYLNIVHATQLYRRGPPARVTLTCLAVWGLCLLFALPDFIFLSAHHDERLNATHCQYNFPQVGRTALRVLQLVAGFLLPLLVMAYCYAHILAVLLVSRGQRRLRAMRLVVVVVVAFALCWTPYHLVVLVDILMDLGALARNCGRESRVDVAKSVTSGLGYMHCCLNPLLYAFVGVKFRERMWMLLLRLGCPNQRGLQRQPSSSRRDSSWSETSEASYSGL

B1: hCXCL11.0049-G1T4k.one//VHn-G1T4h.one.H435R (Fc fusion)
chain 1: FMPMFKRGRCLCIGPGVKAVKVADIEKASIMYPSNNCDKIEVIITLKENKGQRCLNPKSKQARLIIKKVERKNFEPKSSDKTHTCPPCPAPELRRGPSVFLFPPKPKDTLMISRTPEVTCVVVDVSHEDPEVKFNWYVDGVEVHNAKTKPREEQYNSTYRVVSVLTVLHQDWLNGKEYKCKVSNKGLPSSIEKTISKAKGQPREPQVCTLPPSREEMTKNQVSLWCLVKGFYPSDIAVEWESNGQPENNYKTTPPVLDSDGSFFLYSKLTVDKSRWQEGNVFSCSVMHEALHNHYTQKSLSLSP
chain 2: EPKSSDKTHTCPPCPAPELRRGPSVFLFPPKPKDTLMISRTPEVTCVVVDVSHEDPEVKFNWYVDGVEVHNAKTKPREEQYNSTYRVVSVLTVLHQDWLNGKEYKCKVSNKGLPSSIEKTISKAKGQPREPQVYTLPPSRCEMTKNQVSLSCAVKGFYPSDIAVEWESNGQPENNYKTTPPVLDSDGSFFLVSKLTVDKSRWQEGNVFSCSVMHEALHNRYTQKSLSLSP
B2: hCXCL11.0050-G1T4k.one//VHn-G1T4h.one.H435R (Fc fusion)
chain 1: B1 chain 1 with M2N
chain 2: B1 chain 2
B3: hCXCL11.0055-G1T4k.one//VHn-G1T4h.one.H435R (Fc fusion)
chain 1: B1 chain 1 with M2T
chain 2: B1 chain 2
B4: hCXCL11.0058-G1T4k.one//VHn-G1T4h.one.H435R (Fc fusion)
chain 1: B1 chain 1 with M2Y
chain 2: B1 chain 2
B5: hCXCL11.0056-G1T4k.one//VHn-G1T4h.one.H435R (Fc fusion)
chain 1: B1 chain 1 with M2V
chain 2: B1 chain 2
B6: hCXCL11.0052-G1T4k.one//VHn-G1T4h.one.H435R (Fc fusion)
chain 1: B1 chain 1 with M2Q
chain 2: B1 chain 2
B7: hCXCL11.0057-G1T4k.one//VHn-G1T4h.one.H435R (Fc fusion)
chain 1: B1 chain 1 with M2W
chain 2: B1 chain 2
B8: hCXCL11.0054-G1T4k.one//VHn-G1T4h.one.H435R (Fc fusion)
chain 1: B1 chain 1 with M2S
chain 2: B1 chain 2
B9: hCXCL11.0051-G1T4k.one//VHn-G1T4h.one.H435R (Fc fusion)
chain 1: B1 chain 1 with M2P
chain 2: B1 chain 2
B10: hCXCL11.0053-G1T4k.one//VHn-G1T4h.one.H435R (Fc fusion)
chain 1: B1 chain 1 with M2R
chain 2: B1 chain 2

biological target: T1, human CXCR3 (hCXCR3) on Ba/F3 …; test: cell-based or functional assay

Binder	Activity retention rate at 33 nM	Activity retention rate at 100 nM	Activity retention rate at 300 nM	Luminescence value at 33 nM	Luminescence value at 100 nM	Luminescence value at 300 nM
B1	66%	90%	75%	5.1e+06	1.5e+07	9.32e+06
B2	30%	51%	64%	2.32e+06	8.49e+06	7.92e+06
B3	39%	58%	42%	2.98e+06	9.65e+06	5.27e+06
B4	15%	42%	84%	1.12e+06	7.07e+06	1.04e+07
B5	8%	33%	59%	643000	5.57e+06	7.33e+06
B6	77%	90%	67%	5.88e+06	1.51e+07	8.33e+06
B7	7%	37%	86%	501000	6.21e+06	1.07e+07
B8	42%	63%	51%	3.24e+06	1.05e+07	6.34e+06
B9	84%	89%	82%	6.46e+06	1.49e+07	1.02e+07
B10	8%	26%	60%	595000	4.26e+06	7.43e+06
